According to article PMC6882821, “Production of recombinant soluble dimeric C-type lectin-like receptors of rat natural killer cells” (Scientific Reports, 2019):

Experiments:
[1] = target: pYD5 Fc-NKR-P1B^WAG fusion protein (uncleaved) (human | rat (WAG strain)) (UniProt Q5NKN4); assay: AUC; sedimentation velocity, 0.2 mg/ml, 48000 rpm, 20 °C, 10 mM HEPES pH 7.0, 150 mM NaCl, 10 mM NaN3, c(s) model
[2] = target: pYD5 Fc-NKR-P1B^WAG fusion protein (uncleaved) (human | rat (WAG strain)) (UniProt Q5NKN4); assay: SEC; gel filtration on Superdex 200 HR 10/30, room temperature
[3] = target: Clr-11^WAG V65-M207, histidine-tagged, expressed from pHLsec (rat (WAG strain)) (UniProt Q0H8B9); assay: AUC; sedimentation velocity, 0.2 mg/ml, 48000 rpm, 20 °C, 10 mM HEPES pH 7.0, 150 mM NaCl, 10 mM NaN3, c(s) model
[4] = target: Clr-11^WAG V65-M207, histidine-tagged, expressed from pHLsec (rat (WAG strain)) (UniProt Q0H8B9); assay: non-reducing SDS-PAGE with Western blot; small-scale expression test; 10 ul of culture supernatant 3 days after transfection, 15% SDS-PAGE under non-reducing conditions, detected by PentaHis mAb; shows covalent dimers
[5] = target: Clr-11^WAG V65-M207, histidine-tagged, expressed from pHLsec (rat (WAG strain)) (UniProt Q0H8B9); assay: AUC; sedimentation equilibrium, 0.1 mg/ml, 12-15-18-21-24000 rpm, 4 °C, non-interacting discrete species model
[6] = target: Clr-11^WAG V65-M207, histidine-tagged, expressed from pHLsec (rat (WAG strain)) (UniProt Q0H8B9); assay: SEC; gel filtration on Superdex 200 HR 10/30, room temperature
[7] = target: Clr-11^WAG cleaved from the pHLsec-FcHis fusion by HRV 3C protease (rat (WAG strain)) (UniProt Q0H8B9); assay: AUC; sedimentation velocity, 0.2 mg/ml, 48000 rpm, 20 °C, 10 mM HEPES pH 7.0, 150 mM NaCl, 10 mM NaN3, c(s) model
[8] = target: Clr-11^WAG cleaved from the pHLsec-FcHis fusion by HRV 3C protease (rat (WAG strain)) (UniProt Q0H8B9); assay: SEC; gel filtration on Superdex 200 HR 10/30, room temperature
[9] = target: NKR-P1B^WAG C-terminal FcHis fusion protein (pHLsec-FcHis, uncleaved) (rat (WAG strain) | human) (UniProt Q5NKN4); assay: not stated; data not shown; purified C-terminal FcHis fusion proteins
[10] = target: Clr-11-FcHis fusion protein (Clr-11^WAG in pHLsec-FcHis, uncleaved) (rat (WAG strain) | human) (UniProt Q0H8B9); assay: AUC; sedimentation velocity, 0.2 mg/ml, 48000 rpm, 20 °C, 10 mM HEPES pH 7.0, 150 mM NaCl, 10 mM NaN3, c(s) model
[11] = target: Clr-11-FcHis fusion protein (Clr-11^WAG in pHLsec-FcHis, uncleaved) (rat (WAG strain) | human) (UniProt Q0H8B9); assay: SEC; gel filtration on Superdex 200 HR 10/30, room temperature
[12] = target: NKR-P1B^SD C-terminal FcHis fusion protein (pHLsec-FcHis, uncleaved) (rat (SD strain) | human) (UniProt A4KWA1); assay: not stated; data not shown; purified C-terminal FcHis fusion proteins
[13] = target: pYD5 Fc-NKR-P1B^SD fusion protein (uncleaved) (human | rat (SD strain)) (UniProt A4KWA1); assay: AUC; sedimentation velocity, 0.2 mg/ml, 48000 rpm, 20 °C, 10 mM HEPES pH 7.0, 150 mM NaCl, 10 mM NaN3, c(s) model
[14] = target: pYD5 Fc-NKR-P1B^SD fusion protein (uncleaved) (human | rat (SD strain)) (UniProt A4KWA1); assay: SEC; gel filtration on Superdex 200 HR 10/30, room temperature
[15] = target: the molecule itself; assay: non-reducing SDS-PAGE with Western blot; small-scale expression test; 10 ul of culture supernatant 3 days after transfection, 15% SDS-PAGE under non-reducing conditions, detected by PentaHis mAb; shows covalent dimers
[16] = target: the molecule itself; assay: SEC + other: non-reducing SDS-PAGE; gel filtration on Superdex 200 HR 10/30 after TEV cleavage, and 4-20% SDS-PAGE under reducing and non-reducing conditions

“pYD5 Fc-NKR-P1B^WAG fusion protein (uncleaved) (from UniProt Q5NKN4 78-223) (Fc fusion)” gave a stoichiometry N [1] of 2 and a stoichiometry N [2] of 2.

In the case of “Clr-11^WAG V65-M207, histidine-tagged, expressed from pHLsec (from UniProt Q0H8B9 65-207) (domain or fragment)”, the stoichiometry N [3] is reported as 2, the stoichiometry N [4] is reported as 2 and the stoichiometry N [5] is reported as 2. The stoichiometry N [6] was 2.

With “Clr-11^WAG cleaved from the pHLsec-FcHis fusion by HRV 3C protease (from UniProt Q0H8B9 65-207) (domain or fragment)” the stoichiometry N [7] was 2 and the stoichiometry N [8] was 2.

Molecule “NKR-P1B^WAG C-terminal FcHis fusion protein (pHLsec-FcHis, uncleaved) (from UniProt Q5NKN4 78-223) (Fc fusion)” has a stoichiometry N [9] of 2.

“Clr-11-FcHis fusion protein (Clr-11^WAG in pHLsec-FcHis, uncleaved) (from UniProt Q0H8B9 65-207) (Fc fusion)” showed a stoichiometry N [10] of 2 and a stoichiometry N [11] of 2.

“NKR-P1B^SD C-terminal FcHis fusion protein (pHLsec-FcHis, uncleaved) (from UniProt A4KWA1 78-223) (Fc fusion)” gave a stoichiometry N [12] of 2.

For “pYD5 Fc-NKR-P1B^SD fusion protein (uncleaved) (from UniProt A4KWA1 78-223) (Fc fusion)”, the stoichiometry N [13] was 2 and the stoichiometry N [14] was 2.

B1: NKR-P1B^WAG V78-S223, histidine-tagged, expressed from pHLsec (domain or fragment, rat (WAG strain))
chain: ETGVQENRTKTTDSPTKLKCPKDWHSHQDKCFHVSQAPNTWNKSLADCGGKGATLLLIQDQEELRFLRNLTKGKDRSFWIGLNYTLPDKNWKWINSSTLNSDVLSIFGDTKQNSCASISQDKVLSESCDSDNLWICQKELKCECMCNGS
notes: residues that the pHLsec vector adds to the N-terminus of the construct; rat NKR-P1B of the WAG strain, extracellular part with slightly shortened N-terminus, V78-S223; source: suspension-adapted HEK293T, transiently transfected, secreted, culture supernatant
For B1, the “stoichiometry N” value [15] was 2.

B2: NKR-P1B^SD ectodomain cleaved from the pYD5 Fc fusion by TEV protease (domain or fragment, rat (SD strain), UniProt A4KWA1 78-223, looked up)
chain: VQENRTKTTDSPAKLKCPKDWHSHQDKCFHVSQTSITWKGSLADCGGKGATLLLVQDQEELRFLRNLTKRISSSFWIGLSYTLSDEKWKWINGSTLNSDALNITGDTEKDSCASVSQDKVLSESCDSDNIWICQKELKRESTCNDS
notes: rat NKR-P1B of the SD strain, ectodomain construct V78-S223; Obtained as a separable mixture of monomer and covalent dimer; also called pYD5_NKR-P1B^SD (monomeric and dimeric fractions); not shown: Fc (human IgG), N-terminal, cleaved
B2 was tested, and the “stoichiometry N” value [16] was 2.

B3: NKR-P1B^WAG ectodomain cleaved from the pYD5 Fc fusion by TEV protease (domain or fragment, rat (WAG strain), UniProt Q5NKN4 78-223, looked up)
chain: VQENRTKTTDSPTKLKCPKDWHSHQDKCFHVSQAPNTWNKSLADCGGKGATLLLIQDQEELRFLRNLTKGKDRSFWIGLNYTLPDKNWKWINSSTLNSDVLSIFGDTKQNSCASISQDKVLSESCDSDNLWICQKELKCECMCNGS
notes: rat NKR-P1B of the WAG strain, ectodomain construct V78-S223; Disulphide dimer; also called pYD5_NKR-P1B^WAG cleaved off by TEV protease; not shown: Fc (human IgG), N-terminal, cleaved
In the case of B3, the “stoichiometry N” value [16] is reported as 2.
